The experiment deals with Porcine circovirus type 3 (PCV3) capsid protein (porcine circovirus type 3). Put plainly: cryo-EM structure; in vitro assembled full-length PCV3-VLP, 1 mg/ml, Titan Krios 300 kV, EMAN2 reconstruction with icosahedral symmetry applied, ~8.5 Å.

The term stoichiometry N denotes a count of units in the complex or per binding partner. As for “Porcine circovirus type 3 (PCV3) capsid protein (natural protein)”, the stoichiometry N stood at 60.
